Test results from US20190100587A1 (COVAGEN, published 2019).
Numbering of substitutions follows the chain as printed. In names and notes the source's numbering stands. Like-named read-outs stand apart in the source and are kept apart here.

B1: mAb2 G1 C-LC DANAPA IgG1 (bispecific antibody)
heavy: EVQLVESGGGLVQPGGSLKLSCAASGFTFNTYAMNWVRQAPGKGLEWVARIRSKYNNYATYYADSVKDRFTISRDDSKNTAYLQMNSLKTEDTAVYYCVRHGNFGDSYVSWFAYWGQGTLVTVSSASTKGPSVFPLAPSSKSTSGGTAALGCLVKDYFPEPVTVSWNSGALTSGVHTFPAVLQSSGLYSLSSVVTVPSSSLGTQTYICNVNHKPSNTKVDKKVEPKSCDKTHTCPPCPAPELLGGPSVFLFPPKPKDTLMISRTPEVTCVVVAVSHEDPEVKFNWYVDGVEVHNAKTKPREEQYASTYRVVSVLTVLHQDWLNGKEYKCKVSNKALAAPIEKTISKAKGQPREPQVYTLPPSREEMTKNQVSLTCLVKGFYPSDIAVEWESNGQPENNYKTTPPVLDSDGSFFLYSKLTVDKSRWQQGNVFSCSVMHEALHNHYTQKSLSLSPGK
light: not shown
notes: also called CD3/CD33 bispecific FynomAb with Fynomer G1; FynomAb with the DANAPA IgG Fc
B2: mAb2 DANAPA IgG1 (antibody)
heavy: B1 heavy
light: QTVVTQEPSLTVSPGGTVTLTCRSSTGAVTTSNYANWVQQKPGQAPRGLIGGTNKRAPGTPARFSGSLLGGKAALTLSGVQPEDEAEYYCALWYSNLWVFGGGTKLTVLGQPKAAPSVTLFPPSSEELQANKATLVCLISDFYPGAVTVAWKADSSPVKAGVETTTPSKQSNNKYAASSYLSLTPEQWKSHRSYSCQVTHEGSTVEKTVAPTECS
notes: Humanized anti-CD3 antibody in DANAPA IgG1 format; also called anti-CD3 antibody mAb2; CD3-specific antibody mAb2
B3: mAb2 D5 C-LC DANAPA IgG1 (bispecific antibody)
heavy: B1 heavy
light: not shown
notes: also called CD3/CD33 bispecific FynomAb with Fynomer D5; FynomAb with the DANAPA IgG Fc
B4: Anti-PD1 mAb DANAPA IgG1 (antibody)
heavy: QVQLQQSGAELVKPGASVKMSCKAFGYTFTTYPIEWMKQNHGKSLEWIGNFHPYNDDTKYNEKFKGKAKLTVEKSSTTVYLELSRLTSDDSAVYYCARENYGSHGGFVYWGQGTLVTVSAASTKGPSVFPLAPSSKSTSGGTAALGCLVKDYFPEPVTVSWNSGALTSGVHTFPAVLQSSGLYSLSSVVTVPSSSLGTQTYICNVNHKPSNTKVDKKVEPKSCDKTHTCPPCPAPELLGGPSVFLFPPKPKDTLMISRTPEVTCVVVAVSHEDPEVKFNWYVDGVEVHNAKTKPREEQYASTYRVVSVLTVLHQDWLNGKEYKCKVSNKALAAPIEKTISKAKGQPREPQVYTLPPSREEMTKNQVSLTCLVKGFYPSDIAVEWESNGQPENNYKTTPPVLDSDGSFFLYSKLTVDKSRWQQGNVFSCSVMHEALHNHYTQKSLSLSPGK
light: ENVLTQSPAIMSASPGEKVTMTCRASSSVISSYLHWYQQKSGASPKLWIYSTSNLASGVPDRFSGSGSGTSYSLTISSVEAEDAATYYCQQYNGYPLTFGAGTKLEIKRTVAAPSVFIFPPSDEQLKSGTASVVCLLNNFYPREAKVQWKVDNALQSGNSQESVTEQDSKDSTYSLSSTLTLSKADYEKHKVYACEVTHQGLSSPVTKSFNRGEC
notes: DANAPA IgG1 format; also called anti-PD1 antibody; PD-1 specific antibody
B5: mAb1 DANAPA IgG1 (antibody)
heavy: QVQLQQSGAELARPGASVKMSCKASGYTFTRSTMHWVKQRPGQGLEWIGYINPSSAYTNYNQKFKDKATLTADKSSSTAYMQLSSLTSEDSAVYYCASPQVHYDYNGFPYWGQGTLVTVSAASTKGPSVFPLAPSSKSTSGGTAALGCLVKDYFPEPVTVSWNSGALTSGVHTFPAVLQSSGLYSLSSVVTVPSSSLGTQTYICNVNHKPSNTKVDKKVEPKSCDKTHTCPPCPAPELLGGPSVFLFPPKPKDTLMISRTPEVTCVVVAVSHEDPEVKFNWYVDGVEVHNAKTKPREEQYASTYRVVSVLTVLHQDWLNGKEYKCKVSNKALAAPIEKTISKAKGQPREPQVYTLPPSREEMTKNQVSLTCLVKGFYPSDIAVEWESNGQPENNYKTTPPVLDSDGSFFLYSKLTVDKSRWQQGNVFSCSVMHEALHNHYTQKSLSLSPGK
light: QVVLTQSPAIMSAFPGEKVTMTCSASSSVSYMNWYQQKSGTSPKRWIYDSSKLASGVPARFSGSGSGTSYSLTISSMETEDAATYYCQQWSRNPPTFGGGTKLQITRTVAAPSVFIFPPSDEQLKSGTASVVCLLNNFYPREAKVQWKVDNALQSGNSQESVTEQDSKDSTYSLSSTLTLSKADYEKHKVYACEVTHQGLSSPVTKSFNRGEC
notes: mAb1 with Fc mutations D265A, N297A, P329A (EU numbering); also called DANAPA Fc mutated mAb1
B6: mAb1 LALA IgG1 (antibody)
heavy: not shown
light: B5 light
notes: mAb1 with Fc mutations L234A, L235A (EU numbering)
B7: mAb1 DAPA IgG1 (antibody)
heavy: not shown
light: B5 light
B8: mAb1 N297A IgG1 (antibody)
heavy: not shown
light: B5 light
notes: mAb1 with Fc mutation N297A (EU numbering)
B9: mAb1 DENQPS IgG1 (antibody)
heavy: B5 heavy with A269E, A301Q, A333S
light: B5 light
notes: mAb1 with D265E, N297Q, P329S (EU numbering)
B10: mAb1 DNNDPG IgG1 (antibody)
heavy: B5 heavy with A269N, A301D, A333G
light: B5 light
notes: mAb1 with D265N, N297D, P329G (EU numbering)

Experiments:
[1] = target: T1, His-tagged human FcγRI (R&D, carrier-free formulation) (human, UniProt P12314 16-288); assay: AlphaScreen competition on His-tagged FcγRI; competitor biotinylated B21M LALA IgG1
T1 construct: also called CD64; human FcγR1

[2] = target: T1, His-tagged human FcγRI (R&D, …); assay: AlphaScreen competition assay; titrated antibody competes with biotinylated B21M LALA IgG1 for His-tagged human FcγRI
[3] = target: T1, His-tagged human FcγRI (R&D, …); assay: AlphaScreen competition on His-tagged FcγRI; competitor biotinylated B21M LALA IgG1; remark: listed apart in the source
[4] = target: T2, human CD3 on CD3+ Jurkat cells (human); assay: flow cytometry on CD3+ Jurkat cells, bound antibody detected with anti-human IgG-Alexa488
T2 construct: whole, on cells

[5] = target: T3, human recombinant FcRn (Sino Biological) (human, UniProt P55899 24-297; P61769 21-119); assay: SPR (BIAcore), FcRn on chip, pH 6.0, steady-state model
T3 construct: Amine-coupled to a CM5 chip (600 RU); also called neonatal Fc receptor

[6] = target: Human C1q (EMD Millipore) (human, UniProt P02745 23-245; P02746 28-253; P02747 29-245); assay: SPR (BIAcore T100), antibody amine-coupled on a CM5 chip, human C1q injected
[7] = target: T4, human recombinant FcγRIIIA (158F; R&D Systems) (human, UniProt P08637 17-208); assay: SPR (BIAcore), human FcγRIIIA (158F) amine-coupled on a CM5 chip, antibody injected
T4 construct: Amine-coupled to a BIAcore CM5 chip (1400 RU); also called CD16A

[8] = target: T4, human recombinant FcγRIIIA (158F; R&D …); assay: SPR (BIAcore), FcγRIIIA 158F on chip, steady-state model
[9] = target: T4, human recombinant FcγRIIIA (158F; R&D …); assay: SPR (BIAcore), FcγRIIIA 158F on chip, kinetic (koff/kon)
[10] = target: T4, human recombinant FcγRIIIA (158F; R&D …); assay: SPR (BIAcore), FcγRIIIA 158F on chip, 1:1 Langmuir model
[11] = target: T5, human recombinant FcγRI (Sino Biological) (human, UniProt P12314 16-288, limits assumed); assay: SPR (BIAcore), FcγRI on chip, steady-state model
T5 construct: Amine-coupled to a BIAcore CM5 chip (1500 RU); also called CD64

[12] = target: T6, His-tagged human FcγRIIB (R&D, carrier-free formulation) (human, UniProt P31994 46-217, limits assumed); assay: AlphaScreen competition assay; titrated antibody competes with biotinylated B21M IgG1 for His-tagged human FcγRIIB
T6 construct: also called CD32B
T6 sequence (looked up): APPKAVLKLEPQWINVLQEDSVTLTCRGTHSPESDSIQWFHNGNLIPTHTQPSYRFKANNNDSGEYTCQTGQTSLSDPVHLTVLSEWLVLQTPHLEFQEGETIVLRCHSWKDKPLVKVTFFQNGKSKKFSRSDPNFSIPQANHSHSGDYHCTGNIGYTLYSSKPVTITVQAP

[13] = target: T1, His-tagged human FcγRI (R&D, …); assay: AlphaScreen competition on His-tagged FcγRI
[14] = target: T5, human recombinant FcγRI (Sino …); assay: SPR (BIAcore), FcγRI on chip, kinetic (koff/kon)
[15] = target: T5, human recombinant FcγRI (Sino …); assay: SPR (BIAcore), FcγRI on chip, 1:1 Langmuir model
[16] = target: T1, His-tagged human FcγRI (R&D, …); assay: AlphaScreen competition assay; titrated antibody competes with biotinylated B21M LALA IgG1 for His-tagged human FcγRI; remark: listed apart in the source

Row | Binder | IC50 [1] | IC50 [3] | IC50 relative to IgG1 [3] | EC50 (read off the curve) [4] | binding result [7] | Kd [11] | fold stronger binding than mAb1 DANAPA IgG1 [13] | also measured
1 | B1 | 206 nM | – | – | – | – | – | – | –
2 | B2 | ≥ 600 nM | – | – | – | – | – | – | –
3 | B3 | 800 nM | – | – | – | – | – | – | IC50 (read off the curve) [2]: ~200 nM
4 | B4 | ≥ 600 nM | – | – | – | – | – | – | –
5 | B5 | – | > 1000 nM | > 400 fold | ~0.08 nM | no binding (tested: 2000 nM) | – | – | Kd [5]: 500 nM; binding result [6]: no binding (tested: 200 nM C1q)
6 | B6 | – | 27.1 nM | 11.9 fold | ~0.1 nM | – | 1550 nM | > 37 fold | Kd [8]: 13800 nM; Kd [9]: 7780 nM; koff [10]: 0.111 s⁻¹; kon [10]: 14200 M⁻¹ s⁻¹; binding result [12]: binds
7 | B7 | – | 17.7 nM | 7.8 fold | ~0.1 nM | no binding (tested: 2000 nM) | 1190 nM | > 37 fold | Kd [14]: 575 nM; koff [15]: 0.0595 s⁻¹; kon [15]: 103000 M⁻¹ s⁻¹
8 | B8 | – | 23.9 nM | 10.5 fold | ~0.1 nM | no binding (tested: 2000 nM) | 1510 nM | > 37 fold | Kd [14]: 737 nM; koff [15]: 0.112 s⁻¹; kon [15]: 152000 M⁻¹ s⁻¹
9 | B9 | – | – | – | – | – | – | – | binding result [16]: binds
10 | B10 | – | – | – | – | – | – | – | binding result [16]: binds
